Values quoted from earlier work as cited in PMC6359176.

Biological target: α-synuclein preformed fibrils (Homo sapiens) (UniProt P37840)

Kd: 77 nM
Substance: LAG3 (from UniProt Q61790)
